Series [1] concerns the target T1, SARS-CoV-2 nucleocapsid (N) protein (SARS-CoV-2, UniProt P0DTC9 2-419). Description: SV-AUC + ITC global fit; […], pH 7.4; ITC at 20 C; […] (137 mM NaCl). The settings on record: protein: commercial; tags: C-terminal His-tag; chain copies: 2; single strand.
Series [2] addresses T1, SARS-CoV-2 nucleocapsid (N) protein. Description: SV-AUC; […], pH 7.4; ITC at 20 C; […] (137 mM NaCl). The note with it: protein: commercial; tags: C-terminal His-tag; chain copies: 2; single strand.

B1: T6 (ssDNA)
DNA: TTTTTT
One may read the Kd as the constant that tells how readily two partners part at equilibrium. With B1, in series [1], the Kd worked out at 600 nM.

B2: T20 (ssDNA)
DNA: TTTTTTTTTTTTTTTTTTTT
On to B2, for which, in series [2], the binding result was “binds”.

B3: (GT)2 (ssDNA)
DNA: GTGT
Take B3: the dissociation constant (Kd) in series [2] is more than 10000 nM.

B4: T10 (ssDNA)
DNA: TTTTTTTTTT
In series [2], B4 had a Kd of less than 100 nM.
